Data taken from patent US12624096B2, “Anti-tau antibodies and methods of use thereof” (GTInvent Limited, priority 2020, dated 2026).
Entries after “also recorded” stand apart in the source; their conditions may differ.

Key:
human tau and mouse tau = test: Western blot of WT, L66+/+ and L1+/+ mouse brain homogenates; assay type: binding; conditions: 20 μg protein, 5-month-old mice
Description: Protein equivalent to 20 μg from each brain extract was separated using 4-20% bis-tris gels and run in 1×MES buffer.
A band is detected in each sample (WT, L66^+/+ and L1^+/+) with an apparent molecular weight of approximately 55 kDa. This band most likely corresponds to endogenous mouse tau which is of a similar size. In the L66^+/+ samples, a second band running at approximately 68 kDa is also detected. The presence of numerous other bands indicates proteolytic truncation of tau within brain homogenates.

hT40 = hT40 (Homo sapiens, UniProt P10636); test: Biacore X100 SPR, scAb captured via anti-HuCk, hT40 as analyte; assay type: binding; conditions: scAb, Table 23, T441 (hT40)
Method in brief: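 Captured scAb on anti-HuCk CM5 surface (flow cell 1 as reference) in HBS-EP+, capture set for theoretical RMax 100 RU; hT40 injected multi-cycle (0.15625–100 nM) or single-cycle (6.25–100 nM), 120 s association, 420 s dissociation, glycine pH 2.0 regeneration. Kinetics and affinity from 1:1 binding model fit.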

htau40 = htau40 (Homo sapiens, UniProt P10636); test: Biacore X100 SPR of anti-tau mAbs on immobilised htau40; assay type: binding; conditions: mAb, Table 27, immobilised hT40
Method in brief: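 htau40 amine-coupled to a CM5 chip (~250 RU); mAb injected at 0.78–25 nM in HBS-EP+ at 30 μL/min, 120 s association, 600 s dissociation, glycine pH 1.5 regeneration. Kinetics and affinity from 1:1 binding fit with reference-cell subtraction.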

[1] = tested on: alanine substituted 13mer tau peptides; test: Alanine scanning mutagenesis (ASM) peptide ELISA; assay type: binding, human; conditions: numbering according to SEQ ID NO: 1; description text 'may be'
Method in brief: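 Streptavidin-coated plates captured N-terminally biotinylated alanine-substituted 13-mer peptides; scAbs added at 100–500 nM starting concentrations, double-diluted, 1 h at 37 °C. Absorbance read at 450 nm; binding expressed as % scAb bound per peptide at a chosen concentration.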

Sequence of hT40 (P10636 1-441 isoform P10636-8): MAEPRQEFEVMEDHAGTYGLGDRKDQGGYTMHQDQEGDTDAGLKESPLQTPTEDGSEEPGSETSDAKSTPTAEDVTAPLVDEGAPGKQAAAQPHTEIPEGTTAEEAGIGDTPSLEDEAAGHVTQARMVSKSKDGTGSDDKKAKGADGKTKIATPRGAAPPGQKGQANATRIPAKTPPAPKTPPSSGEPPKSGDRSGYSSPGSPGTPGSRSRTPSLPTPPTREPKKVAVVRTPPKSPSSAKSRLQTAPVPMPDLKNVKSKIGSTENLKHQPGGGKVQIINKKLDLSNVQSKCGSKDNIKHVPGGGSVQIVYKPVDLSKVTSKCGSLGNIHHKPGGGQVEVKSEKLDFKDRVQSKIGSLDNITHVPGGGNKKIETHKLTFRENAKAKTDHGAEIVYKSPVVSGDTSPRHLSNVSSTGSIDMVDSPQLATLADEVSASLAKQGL
Sequence of htau40 (P10636 1-441 isoform P10636-8): as above

Molecule	bands detected in western blot of WT, L66+/+ and L1+/+ brain homogenates (human tau and mouse tau)	ka (hT40) [M⁻¹ s⁻¹]	kd (hT40) [s⁻¹]	ka (htau40) [M⁻¹ s⁻¹]	kd (htau40) [s⁻¹]	Critical residues of the epitope [1]
S1G2: anti-tau clone, SEQ ID NO: 81 (protein, S1G2 amino acid sequence) scFv: QVQLQESGPSLVKPSQTLSLTCTVSGFSLTSNSVGWVRQAPGKAPEWVAGIDTDGEEGYNPALNSRLSITRDTSKSQVSLSLSSVTSEDTAVYYCGRSYRADGLAYGYVQAIDYWGPGLLVTVSSEGKSSGASGESKVDDQAVVTQPSSVSGSLGQRVSITCSGSFIGISSVGWFQQLPGSGLRTIIVASDGRPSGVPDRFSMSKSGNTATLTISSLQAEDEADYFCGSSDRTPYTGVFGSGTRLTVLG	numerous bands visible in each mouse sample; also recorded: able to detect the pathologic 10-kDa tau fragment	1.057e+06	0.00018	339800	4.748e-05	370 (K) and/or 374 (H)
S1D12: anti-tau clone from immunised sheep, SEQ ID NO: 32 (protein, S1D12 amino acid sequence) scFv: QVQLQESGPSLVKPSQTLSLTCTVSGFSLNNNAVGWVRQAPGKVPESLVGCSSDGTCYYNSALKSRLDITRDTSKNQISLSLSSVTTDDAAVYYCTRGHYSIYGYDYLGTIDYWGPGLLVTVSSEGKSSGASGESKVDDQAVLTQPSSVSGSLGQRVSITCSGSSSNVGGGNSVGWYQHLPGSGLKTIIYDTNSRPSGVPDRFSGSRSGNTATLTINSLQAEDEGDYYCVTGDSTTHDDLVGSGTRLTVLG	numerous bands visible in each mouse sample	1.252e+06	0.00015	405800	4.093e-05	343 (K), 346 (F) and/or 349 (R)
